From publication PMC4991664

Biological target: Atad2-tag (endogenous mouse Atad2 with a C-terminal 6xHis-Flag-Ha TAP tag, knock-in) (mouse (endogenous in 46C ES cells)) (UniProt Q8CDM1)
Assay: co-IP; anti-Flag immunoprecipitation of protein extracts of 46C^tag and parental 46C ES cells; western blot with anti-H4 and anti-acetylated H4, compared with dilutions of the input

UniProt Q8CDM1, sequence (Q8CDM1 whole entry): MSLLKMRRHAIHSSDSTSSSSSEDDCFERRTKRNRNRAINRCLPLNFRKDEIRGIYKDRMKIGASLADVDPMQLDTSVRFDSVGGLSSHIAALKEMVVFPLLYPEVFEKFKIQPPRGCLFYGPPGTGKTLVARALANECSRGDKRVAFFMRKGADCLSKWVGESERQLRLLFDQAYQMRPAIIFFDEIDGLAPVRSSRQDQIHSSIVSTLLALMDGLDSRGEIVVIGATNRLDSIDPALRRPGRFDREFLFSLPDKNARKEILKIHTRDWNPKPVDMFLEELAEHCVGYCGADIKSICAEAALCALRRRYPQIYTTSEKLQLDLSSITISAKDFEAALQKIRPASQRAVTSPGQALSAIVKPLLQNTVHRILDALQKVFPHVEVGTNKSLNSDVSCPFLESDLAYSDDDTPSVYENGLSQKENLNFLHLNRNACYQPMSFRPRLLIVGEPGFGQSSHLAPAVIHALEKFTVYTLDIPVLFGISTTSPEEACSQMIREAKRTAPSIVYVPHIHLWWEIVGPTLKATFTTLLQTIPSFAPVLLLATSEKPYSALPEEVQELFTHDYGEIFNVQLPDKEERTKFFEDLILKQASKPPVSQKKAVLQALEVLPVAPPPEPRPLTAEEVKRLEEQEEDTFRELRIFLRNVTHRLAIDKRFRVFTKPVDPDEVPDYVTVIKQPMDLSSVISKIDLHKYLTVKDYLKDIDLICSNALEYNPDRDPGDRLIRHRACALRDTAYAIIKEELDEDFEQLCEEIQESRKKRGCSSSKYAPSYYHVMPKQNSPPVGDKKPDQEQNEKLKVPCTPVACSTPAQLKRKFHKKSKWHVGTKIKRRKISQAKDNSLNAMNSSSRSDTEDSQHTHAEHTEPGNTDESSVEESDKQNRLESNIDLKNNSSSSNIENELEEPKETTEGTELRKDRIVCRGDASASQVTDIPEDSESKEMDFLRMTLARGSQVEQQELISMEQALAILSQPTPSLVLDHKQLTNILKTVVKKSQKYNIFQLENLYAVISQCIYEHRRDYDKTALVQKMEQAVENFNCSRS

Substance | fraction of the input immunoprecipitated (fraction of the input)
acetylated histone H4 (from UniProt P62806 1-103) (natural protein) | 0.02
histone H4 (from UniProt P62806 1-103) (natural protein) | 0.01
